Results on ten substances are retold here after patent publication US20240066100A1.

pKd: −log10 of the molar value.

The target of test [1] is human IL-18BP (amino acids 31-194), biotinylated (human) (UniProt O95998). Briefly: yeast display binding. To be noted: ligand.
Target sequence in this assay (O95998 other isoform, or with tags, fused parts or gaps): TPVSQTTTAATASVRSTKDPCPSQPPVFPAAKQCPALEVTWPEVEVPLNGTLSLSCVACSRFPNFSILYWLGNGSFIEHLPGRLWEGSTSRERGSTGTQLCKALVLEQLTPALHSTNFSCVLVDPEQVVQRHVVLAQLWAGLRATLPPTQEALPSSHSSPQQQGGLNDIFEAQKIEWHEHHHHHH
The target is the same in test [2]. Nature of the test: SPR, Biacore T100; biotinylated receptor on chip, IL-18 as analyte. Background: In SPR one partner is held on a chip, and binding of the other changes the refractive index at the surface.
Target sequence in this assay (O95998 other isoform, or with tags, fused parts or gaps limits assumed, form in doubt): as the sequence (O95998 other isoform, or with tags, fused parts or gaps) above
The target is the same in test [3]. Nature of the test: SPR, apparent KD.
Target sequence in this assay (O95998 other isoform, or with tags, fused parts or gaps limits assumed, form in doubt): as the sequence (O95998 other isoform, or with tags, fused parts or gaps) above
The target is the same in test [4]. Briefly: SPR.
Test [5] has the same target. Nature of the test: SPR, Biacore T100; hIL-18BP as surface ligand, IL-18 as analyte.
Target sequence in this assay (O95998 other isoform, or with tags, fused parts or gaps limits assumed, form in doubt): as the sequence (O95998 other isoform, or with tags, fused parts or gaps) above
Test [6] has the same target. Briefly: SPR, Biacore T100.
Target sequence in this assay (O95998 other isoform, or with tags, fused parts or gaps limits assumed, form in doubt): as the sequence (O95998 other isoform, or with tags, fused parts or gaps) above
The target is the same in test [7]. Nature of the test: SPR, Biacore T100; hIL-18BP as surface ligand; Exp 1.
Target sequence in this assay (O95998 other isoform, or with tags, fused parts or gaps limits assumed, form in doubt): as the sequence (O95998 other isoform, or with tags, fused parts or gaps) above
Test [8] has the same target. Briefly: SPR, Biacore T100; hIL-18BP as surface ligand; Exp 2.
Target sequence in this assay (O95998 other isoform, or with tags, fused parts or gaps limits assumed, form in doubt): as the sequence (O95998 other isoform, or with tags, fused parts or gaps) above
Test [9] shares this target. Nature of the test: SPR; KD IL-18BP / KD IL-18Rα normalized to WT IL-18.
The target is the same in test [10]. Nature of the test: SPR, biotinylated receptor on streptavidin capture chip, IL-18 as free analyte.
The target is the same in test [11]. Nature of the test: SPR, representative sensorgram, immobilized biotinylated hIL-18BP.
For test [12] the target is unchanged. Briefly: on-yeast binding isotherm, flow cytometry. (In flow cytometry, cells or beads pass a laser one at a time.)

Chain of wild-type human Interleukin-18 (mature form) (Q14116 37-193): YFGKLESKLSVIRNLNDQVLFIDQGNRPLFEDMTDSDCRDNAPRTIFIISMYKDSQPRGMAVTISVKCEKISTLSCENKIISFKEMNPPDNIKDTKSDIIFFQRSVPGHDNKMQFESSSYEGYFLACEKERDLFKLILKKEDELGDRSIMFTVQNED

The pKd is −log10 of the Kd, conventionally taken in molar units. With “human decoy-to-the-decoy (D2D) IL-18 variant SEQ ID NO: 101 (from UniProt Q14116 37-193)”, the pKd in test [1] is 8.06.

As to “human decoy-to-the-decoy (D2D) IL-18 consensus variant SEQ ID NO: 124 (from UniProt Q14116 37-193)”, the pKd in [1] is 8.10.

For the substance “human decoy-to-the-decoy (D2D) IL-18 consensus variant SEQ ID NO: 123 (from UniProt Q14116 37-193)”, the pKd in test [1] is 8.23.

With “human decoy-to-the-decoy (D2D) IL-18 variant SEQ ID NO: 98 (from UniProt Q14116 38-193)”, the negative logarithm of the Kd (pKd) in [1] is 8.27.

In test [1], “human decoy-to-the-decoy (D2D) IL-18 variant SEQ ID NO: 94 (from UniProt Q14116 38-193)” showed a negative logarithm of the Kd (pKd) of 8.19.

“human decoy-to-the-decoy (D2D) IL-18 consensus variant SEQ ID NO: 125 (from UniProt Q14116 37-193)” showed a negative-log Kd (pKd) in [1] of 8.05.

In [1], “human decoy-to-the-decoy (D2D) IL-18 variant SEQ ID NO: 99 (from UniProt Q14116 38-193)” showed a pKd of 8.32.

What is called koff is a measure of how fast the partners let go of each other. The term kon denotes the rate constant with which the complex forms. Low values mean slower complex formation, high ones faster complex formation. For “wild-type human Interleukin-18 (mature form) (from UniProt Q14116 37-193) (ligand)”, the negative-log Kd (pKd) in test [2] is 11.72; in test [3], over 10.00; in test [4], 11.70; in [7], 12.16; in test [8] it was 12.37; in test [10], over 9.00. Also, the negative-log Kd (pKd) in test [11] was 11.70; in test [12], 8.15. For the same substance, the koff in test [5] is 2.23e-07 s⁻¹. This substance also returned a kon in [5] of 518000 M⁻¹ s⁻¹. The Dissociation Constant Ratio normalized to WT IL-18 in test [6] and in test [12] was 1 throughout. Also, the figures for the KD ratio IL-18BP/IL-18Rα in test [6] and in test [12] were 0.000648 and 0.295, respectively. Further, in test [9], the IL-18 BP:Rα Dissociation Constant Ratio is 1.

With “wild-type human Interleukin-18 (mature form) (from UniProt Q14116 37-193)”, the figures for the pKd in test [4] (ligand) and in test [1] were 9.22 and 8.68, respectively.

The substance “human decoy-to-the-decoy (D2D) IL-18 variant SEQ ID NO: 120 (from UniProt Q14116 37-193)” had a pKd in test [1] of 8.38.
